# In patent CN110272489A (SHANGHAI JIANXIN BIOPHARMACEUTICALS LLC, dated 2019):
# Where two headings read alike, the source gives them in different places.
# T1: 狨猴(marmoset) Tim-3蛋白 (狨猴(marmoset), UniProt F7I881 21-290)
# T1 sequence: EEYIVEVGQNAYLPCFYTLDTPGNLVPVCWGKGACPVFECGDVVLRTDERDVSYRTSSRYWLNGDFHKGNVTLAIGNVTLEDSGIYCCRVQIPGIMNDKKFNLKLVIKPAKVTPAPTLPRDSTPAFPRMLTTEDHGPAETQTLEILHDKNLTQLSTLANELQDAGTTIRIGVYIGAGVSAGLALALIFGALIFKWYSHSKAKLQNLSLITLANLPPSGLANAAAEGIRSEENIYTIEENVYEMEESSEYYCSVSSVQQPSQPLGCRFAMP
# Tests used:
# [1] = target: T2, 人Tim-3 on CHO-K1 hTim-3+ cells (human, UniProt Q8TDQ0 22-301); experiment: cell ELISA on fixed CHO-K1 hTim-3+ cells (Example 2)
# T2 construct: whole, on cells; Mature protein 22-301; also called hTim-3+细胞; 人Tim-3+细胞
# [2] = target: T1, 狨猴(marmoset) Tim-3蛋白; experiment: ELISA (method of Example 3), Fig. 4b
# [3] = target: T3, 人TIM-3 (recombinant antigen of the ELISA of Example 3: TIM-3-hFc captured on goat-anti-hFc, or Tim-3-his … (human, UniProt Q8TDQ0 22-202)); experiment: ELISA on human TIM-3 (Example 3)
# T3 construct: extracellular domain; also called 人TIM-3抗原; not shown: a His tag instead if Tim-3-his was coated
# [4] = target: 猕猴(Macaca)Tim-3蛋白 (猕猴(Macaca)); experiment: ELISA (method of Example 3), Fig. 4a
# [5] = target: T4, 人Tim-3 (antigen, analyte of the Biacore assay of Example 7) (human, UniProt Q8TDQ0 22-199); experiment: SPR, Biacore T200, antibody captured on Protein A, TIM-3 as analyte, 1:1 Langmuir
# T4 construct: Antibody captured on Protein A chip, antigen TIM-3 flowed at 0-30 nM; also called 抗原TIM-3
# [6] = target: T3, 人TIM-3 (recombinant antigen of the …); experiment: ELISA on human TIM-3 (Example 3); remark: listed apart in the source
# [7] = target: T3, 人TIM-3 (recombinant antigen of the …); experiment: ELISA on human TIM-3, against ABTIM3 as reference
# [8] = target: 猕猴(Macaca)Tim-3蛋白 (猕猴(Macaca)); experiment: ELISA, against ABTIM3 as reference
# [9] = target: T4, 人Tim-3 (antigen, analyte of the Biacore …); experiment: SPR, Biacore, method of Example 7
Binder,EC50 [1],EC50 [6],further results
"ABTIM3 (阳性对照抗体) (antibody, V domains shown) VH: QVQLQQPGAELVKPGASVKMSCKASGYTFTSYNMHWIKQTPGQGLEWIGDIYPGNGDTSYNQKFKGKATLTADKSSSTVYMQLSSLTSEDSAVYYCARVGGAFPMDYWGQGTSVTVSS VL: DIVLTQSPASLAVSLGQRATISCRASESVEYYGTSLMQWYQQKPGQPPKLLIYAASNVESGVPARFSGSGSGTDFSLNIHPVEEDDIAIYFCQQSRKDPSTFGGGTKLEIK",150 to 230 pM,–,EC50 [2]: 400 pM; EC50 [3]: 376 pM; EC50 [4]: 140 pM
"mab15-c (嵌合抗体, hIgG4-κ) (antibody, V domains shown, Chimeric antibody: mab15 variable regions with human IgG4 / kappa constant regions) VH: EVKLVESEGGLVQPGSSMKLSCTASGFTFSDYYMTWVRQVPEKGLEWVASINYDGRNTYYLDSLKSRFIISRDNAKNILYLQMSSLKSEDTATYYCARGYYYYGSSPNYFDYWGQGTTLTVSS VL: DIQMTQSPASLSASVGETVTITCRASENIYSYLTWYQQKQGKSPQLLVYNAKTLAEGVPSRFSGSGSGTQFSLRINSLQPEDFGNYYCQQHYGTPLTFGAGTKLELKR",–,183 pM,"Kd [5]: 310 pM; koff [5]: 0.000106 s⁻¹; kon [5]: 344000 M⁻¹ s⁻¹; EC50 [3]: 158 pM; fold better than the reference antibody (ratio of EC50, reference/mab15-c) [7]: 2.38 fold"
"人源化ab16 抗体 (antibody, human IgG4 S228P, kappa, V domains shown, Humanized, hIgG4-kappa) VH: EVQLVESGGGLVKPGGSLRLSCAASGFTFSDYYMTWVRQAPGKGLEWVASINYDGRNTYYLDSLKSRFTISRDNAKNSLYLQMNSLRAEDTAVYYCARGYYYYGSSPNYFDYWGQGTLVTVSS VL: DIQMTQSPSSLSASVGDRVTITCRASENIYSYLTWYQQKPGKSPKLLVYNAKTLAEGVPSRFSGSGSGTQFSLTISSLQPEDFANYYCQQHYGTPLTFGQGTKLEIKR",151 pM,145 pM,–
"人源化ab32抗体 (全人源化抗体) (antibody, human IgG4 S228P, kappa, V domains shown, Fully humanized (no back mutations), hIgG4-kappa) VH: EVQLVESGGGLVKPGGSLRLSCAASGFTFSDYYMTWVRQAPGKGLEWVSSINYDGRNTYYLDSLKSRFTISRDNAKNSLYLQMNSLRAEDTAVYYCARGYYYYGSSPNYFDYWGQGTLVTVSS VL: DIQMTQSPSSLSASVGDRVTITCRASENIYSYLTWYQQKPGKAPKLLIYNAKTLAEGVPSRFSGSGSGTDFTLTISSLQPEDFATYYCQQHYGTPLTFGQGTKLEIKR",112 pM,184 pM,fold weaker than the positive control antibody [8]: ~100 fold; koff [9]: 0.000296 s⁻¹; EC50 [4]: 11000 pM
"人源化ab17抗体 (antibody, human IgG4 S228P, kappa, V domains shown, Humanized, hIgG4-kappa) VH: EVQLVESGGGLVKPGGSLRLSCAASGFTFSDYYMTWVRQAPGKGLEWVASINYDGRNTYYLDSLKSRFTISRDNAKNSLYLQMNSLRAEDTAVYYCARGYYYYGSSPNYFDYWGQGTLVTVSS VL: DIQMTQSPSSLSASVGDRVTITCRASENIYSYLTWYQQKPGKSPKLLVYNAKTLAEGVPSRFSGSGSGTQFTLTISSLQPEDFATYYCQQHYGTPLTFGQGTKLEIKR",–,212 pM,–
"人源化ab18抗体 (antibody, human IgG4 S228P, kappa, V domains shown, Humanized, hIgG4-kappa) VH: EVQLVESGGGLVKPGGSLRLSCAASGFTFSDYYMTWVRQAPGKGLEWVASINYDGRNTYYLDSLKSRFTISRDNAKNSLYLQMNSLRAEDTAVYYCARGYYYYGSSPNYFDYWGQGTLVTVSS VL: DIQMTQSPSSLSASVGDRVTITCRASENIYSYLTWYQQKPGKAPKLLIYNAKTLAEGVPSRFSGSGSGTDFTLTISSLQPEDFATYYCQQHYGTPLTFGQGTKLEIKR",–,198 pM,–
"人源化ab23抗体 (antibody, human IgG4 S228P, kappa, V domains shown, Humanized, hIgG4-kappa) VH: EVQLVESGGGLVKPGGSLRLSCAASGFTFSDYYMTWVRQAPGKGLEWVASINYDGRNTYYLDSLKSRFTISRDNAKNILYLQMNSLRAEDTAVYYCARGYYYYGSSPNYFDYWGQGTLVTVSS VL: DIQMTQSPSSLSASVGDRVTITCRASENIYSYLTWYQQKPGKSPKLLVYNAKTLAEGVPSRFSGSGSGTQFSLTISSLQPEDFANYYCQQHYGTPLTFGQGTKLEIKR",–,210 pM,–
"人源化ab24抗体 (antibody, human IgG4 S228P, kappa, V domains shown, Humanized, hIgG4-kappa) VH: EVQLVESGGGLVKPGGSLRLSCAASGFTFSDYYMTWVRQAPGKGLEWVASINYDGRNTYYLDSLKSRFTISRDNAKNILYLQMNSLRAEDTAVYYCARGYYYYGSSPNYFDYWGQGTLVTVSS VL: DIQMTQSPSSLSASVGDRVTITCRASENIYSYLTWYQQKPGKSPKLLVYNAKTLAEGVPSRFSGSGSGTQFTLTISSLQPEDFATYYCQQHYGTPLTFGQGTKLEIKR",–,243 pM,–
"人源化ab30抗体 (antibody, human IgG4 S228P, kappa, V domains shown, Humanized, hIgG4-kappa) VH: EVQLVESGGGLVKPGGSLRLSCAASGFTFSDYYMTWVRQAPGKGLEWVSSINYDGRNTYYLDSLKSRFTISRDNAKNSLYLQMNSLRAEDTAVYYCARGYYYYGSSPNYFDYWGQGTLVTVSS VL: DIQMTQSPSSLSASVGDRVTITCRASENIYSYLTWYQQKPGKSPKLLVYNAKTLAEGVPSRFSGSGSGTQFSLTISSLQPEDFANYYCQQHYGTPLTFGQGTKLEIKR",–,233 pM,–
